# Results taken from article PMC11350156.
# T1: 6xHis-IE2(87-579) (Human cytomegalovirus, UniProt Q6SWP7 87-579)
# T1 sequence: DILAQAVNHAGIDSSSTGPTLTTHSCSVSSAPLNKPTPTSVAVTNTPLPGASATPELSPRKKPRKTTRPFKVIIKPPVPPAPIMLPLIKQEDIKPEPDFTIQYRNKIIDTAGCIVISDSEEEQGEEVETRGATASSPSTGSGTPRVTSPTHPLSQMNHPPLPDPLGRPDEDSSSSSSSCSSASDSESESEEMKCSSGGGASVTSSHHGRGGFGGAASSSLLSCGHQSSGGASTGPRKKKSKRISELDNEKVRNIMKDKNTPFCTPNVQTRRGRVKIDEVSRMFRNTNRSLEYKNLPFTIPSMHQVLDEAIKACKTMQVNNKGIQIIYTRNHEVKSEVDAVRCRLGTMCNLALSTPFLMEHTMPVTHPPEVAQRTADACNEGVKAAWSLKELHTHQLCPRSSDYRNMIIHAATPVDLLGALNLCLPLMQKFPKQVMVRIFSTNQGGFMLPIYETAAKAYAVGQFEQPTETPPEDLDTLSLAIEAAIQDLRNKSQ
# T2: UL84-6xHis (Human cytomegalovirus, UniProt P16727 1-586)
# T2 sequence: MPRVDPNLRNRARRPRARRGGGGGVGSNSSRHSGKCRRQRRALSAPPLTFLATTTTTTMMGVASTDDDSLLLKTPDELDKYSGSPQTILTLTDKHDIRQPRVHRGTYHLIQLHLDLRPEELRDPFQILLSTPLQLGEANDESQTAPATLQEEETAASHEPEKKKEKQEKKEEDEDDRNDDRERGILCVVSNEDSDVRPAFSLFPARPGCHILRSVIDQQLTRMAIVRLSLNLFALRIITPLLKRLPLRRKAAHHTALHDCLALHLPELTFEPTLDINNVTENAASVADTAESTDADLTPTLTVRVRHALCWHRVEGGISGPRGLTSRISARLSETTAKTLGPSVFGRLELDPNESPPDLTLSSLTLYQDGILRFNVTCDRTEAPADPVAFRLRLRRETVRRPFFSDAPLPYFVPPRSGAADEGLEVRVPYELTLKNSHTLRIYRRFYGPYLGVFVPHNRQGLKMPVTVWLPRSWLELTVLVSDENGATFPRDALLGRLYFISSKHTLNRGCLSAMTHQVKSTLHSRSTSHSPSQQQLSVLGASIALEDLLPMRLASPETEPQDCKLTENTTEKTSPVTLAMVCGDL
# Experiments:
# [1] = target: T1, 6xHis-IE2(87-579); assay: ELISA
# [2] = target: T3, 6xHis-UL44(1-290) (Human cytomegalovirus, UniProt P16790 1-290); assay: ELISA
# [3] = target: T2, UL84-6xHis; assay: ELISA
# [4] = target: T1, 6xHis-IE2(87-579); assay: pull-down immunoblot
# [5] = target: T3, 6xHis-UL44(1-290); assay: pull-down immunoblot
# [6] = target: T2, UL84-6xHis; assay: pull-down immunoblot
# [7] = target: T1, 6xHis-IE2(87-579); assay: pull-down
# [8] = target: T3, 6xHis-UL44(1-290); assay: pull-down
# [9] = target: T2, UL84-6xHis; assay: pull-down
# T3 sequence (P16790 1-290): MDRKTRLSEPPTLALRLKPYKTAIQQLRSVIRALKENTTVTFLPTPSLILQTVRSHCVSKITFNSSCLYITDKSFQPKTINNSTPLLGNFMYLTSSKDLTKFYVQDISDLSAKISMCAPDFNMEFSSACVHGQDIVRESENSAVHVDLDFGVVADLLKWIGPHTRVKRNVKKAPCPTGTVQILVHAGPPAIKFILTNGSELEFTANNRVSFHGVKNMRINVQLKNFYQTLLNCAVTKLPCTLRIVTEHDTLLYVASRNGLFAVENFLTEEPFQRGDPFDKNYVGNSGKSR
binder,measurement,setting,value
AAGGGGGGGGGTGAGGGGGGGGGGTT (structured_DNA) [oriG4-1],Kd,[1],123 nM
same,Kd,[2],25.5 nM
same,Kd,[3],14.2 nM
AAGGGAAAGGGTGAGGGGGGGGGGTT (structured_DNA) [oriG4-1 L1],binding result,[4],binds
same,binding result,[5],binds
same,binding result,[6],binds
AAGGAGAGAGGTGAGGAGGAAAGGTT (ssDNA) [oriG4-1m],binding result,[7],no binding
same,binding result,[8],no binding
same,binding result,[9],no binding
